Data published in patent US20110300156A1 (Genmab, published 2011).

T1: murine tissue factor (TF) on transfected HEK293F cells (murine, UniProt P20352 29-294)
T1 construct: whole, on cells; also called murine TF; TFmm
T1 sequence (looked up): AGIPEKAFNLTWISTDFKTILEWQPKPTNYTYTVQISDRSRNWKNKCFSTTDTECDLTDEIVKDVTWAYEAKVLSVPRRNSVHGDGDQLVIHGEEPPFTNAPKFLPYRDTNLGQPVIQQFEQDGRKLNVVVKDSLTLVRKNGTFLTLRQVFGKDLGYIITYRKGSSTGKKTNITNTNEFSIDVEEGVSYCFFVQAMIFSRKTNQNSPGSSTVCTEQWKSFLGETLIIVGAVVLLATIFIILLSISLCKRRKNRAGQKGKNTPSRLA


Key:
[1] = target: T2, human tissue factor (TF), membrane-bound on cells (human, UniProt P13726 33-295); test: FACS, A431 cells
T2 construct: whole, on cells; also called cellular TF
Procedure: (§1) Cells were resuspended in PBS (2×10⁶ cells/ml), put in 96-well V-bottom plates (50 μl/well). 50 μl of serially diluted HuMab in FACS buffer (PBS supplemented with 0.1% BSA and 0.02% Na-azide) was added to the cells and incubated for 30 minutes on ice. After washing three times with FACS buffer, 50 μl of phycoerythrin (PE)-conjugated goat anti-human IgGFc (Jackson ImmunoResearch), diluted 1:100 in FACS buffer, was added. After 30 minutes on ice (in the dark), cells were washed three times, and specific binding of the HuMabs was detected by flow cytometry on a FACSCalibur (BD Biosciences). HuMab-KLH was used as a negative control. Mouse anti-TF followed by PE-conjugated anti-mouse IgGFc was used as positive control. Binding curves were analyzed using non-linear regression (sigmoidal dose-response with variable slope) using GraphPad Prism V4.03 software (GraphPad Software, San Diego, Calif., USA).

[2] = target: T2, human tissue factor (TF), …; test: FACS, Bx-PC3 cells
Procedure: as §1

[3] = target: T2, human tissue factor (TF), …; test: FACS, MDA-MB-231 cells
Procedure: as §1

[4] = target: T2, human tissue factor (TF), …; test: cell-based or functional assay
[5] = target: T2, human tissue factor (TF), …; test: cell-based or functional assay; remark: listed apart in the source
TF (Innovin) [6] = target: T3, TF (Innovin) (UniProt P13726 33-295, limits assumed); test: cell-based or functional assay
[7] = target: T2, human tissue factor (TF), …; test: cell-based or functional assay; remark: listed apart in the source
[8] = target: T2, human tissue factor (TF), …; test: FACS, A431 cells, 30 µg/mL
Procedure: as §1

[9] = target: T2, human tissue factor (TF), …; test: FACS, Bx-PC3 cells, 30 µg/mL
Procedure: as §1

[10] = target: T2, human tissue factor (TF), …; test: FACS, MDA-MB-231 cells, 30 µg/mL
Procedure: as §1

[11] = target: T2, human tissue factor (TF), …; test: FACS, TF transfected CHO cells (S1015-TF)
Procedure: as §1

[12] = target: T2, human tissue factor (TF), …; test: FACS, TF transfected CHO cells (S1015-TF), 7.5 µg/mL
Procedure: as §1

[13] = target: T4, TFECDHis (extracellular domain of tissue factor, amino acid 1-251, with C-terminal His tag) (human, UniProt P13726 33-251); test: competition ELISA, inhibition of FVIIa (100 nM) binding to coated TFECDHis
T4 construct: range 1-251; The stated range 1-251 starts at residue 1 of NP-001984; also called extracellular domain of TF
Procedure: ELISA plates were coated overnight with TFECDHis (0.5 μg/mL, 100 μL per well). Plates were emptied, blocked with PBS containing 2% (v/v) chicken serum (1 hour, RT), and emptied again. […] Plates were washed and incubated with swine-anti-rabbit IgG-HRP antibody (1:2,500; DAKO). After washing, the immune complexes were visualized using ABTS as a substrate.

[14] = target: T1, murine tissue factor (TF) on …; test: FACS on transfected HEK293F cells, 30 µg/mL antibody [panel K]
[15] = target: T2, human tissue factor (TF), …; test: FACS on MDA-MB-231 cells (~900.000 TF molecules/cell) [panel MDA-MB-231 cells]
Procedure: as §1
Binding of anti-TF HuMabs to membrane-bound TF on cell lines expressing different levels of TF was determined by FACS analysis, essentially as described supra. Mouse anti-TF antibody followed by PE-conjugated anti-mouse IgGFc was used as a positive control. Fluorescence was measured on a FACSCantoII. Binding curves were analyzed essentially as described supra, using GraphPad Prism 5 software. The amount of TF molecules on cell lines was determined by Qifi kit (Dako, Glostrup, Denmark), according to the manufacturer's instructions.

[16] = target: T4, TFECDHis (extracellular domain of …); test: SPR avidity format: TFECDHis immobilized, bivalent HuMab as analyte (printed as avidity nM)
Procedure: (§2) Antibody binding to TF was analyzed by surface plasmon resonance in a BIAcore 3000 (GE Healthcare). TFECDHis was used for the analysis. HuMab antibodies (500 resonance units) were immobilized on the CM-5 sensor chip according to the procedure recommended by the manufacturer. Briefly, after surface activation by EDC and NHS HuMab antibody was injected over the activated CM-5 surface in 10 mM sodium-acetate, pH ranging from 4.0 to 5.5 at 5 μl/min. followed by 1 M Ethanolamine for deactivation. Concentration series of TFECDHis in HBS-EP buffer were injected over the immobilized antibodies at a flow rate of 30 μl/min for 180 sec. Regeneration of the HuMab surface was performed by injection of 10 mM Glycine-HCl pH 2.0 or 10 mM sodium acetate pH 3.0. Kinetic analysis was performed using double reference subtraction and model 1:1 (langmuir) binding analysis.
TF (TFECDHis) binding to TF-specific HuMabs was determined essentially as described above, with TFECDHis being immobilized on the CM-5 sensor chip (300 resonance units), and concentration series of Humab antibodies used for kinetic analysis. Kinetic analysis was performed using double reference subtraction and model 1:1 (langmuir) binding analysis.

TF (Innovin) [17] = target: T3, TF (Innovin); test: cell-based or functional assay; remark: listed apart in the source
[18] = target: T4, TFECDHis (extracellular domain of …); test: ELISA, coated TFECDHis, mean of 3
Procedure: The specificity of the obtained anti-TF HuMabs was evaluated by ELISA. ELISA plates (Microlon; Greiner Bio-One) were coated overnight at +4° C. with 0.5 μg/mL of TFECDHis in PBS, pH 7.4. Coated ELISA plates were emptied and blocked for one hour at room temperature with 2% (v/v) chicken serum (Gibco, Paisley, Scotland) in PBS and washed with PBS containing 0.05% Tween 20 (PBST). Subsequently, HuMabs, serially diluted in PBSTC (PBS supplemented with 2% (v/v) chicken serum and 0.05% (v/v) Tween-20), were incubated for 1 hr at RT under shaking conditions (300 rpm). Bound HuMabs were detected using HRP-conjugated goat-anti-human IgG antibodies (Jackson ImmunoResearch) diluted 1:5,000 in PBSTC, which were incubated for 1 hr at RT under shaking conditions (300 rpm). […] HuMab-KLH (a human monoclonal antibody against KLH (keyhole limpet haemocyanin)), was used as a negative control. Mouse anti-human TF (ERL) was used as positive control (HRP labeled anti-mouse IgG as conjugate). Binding curves were analyzed using non-linear regression (sigmoidal dose-response with variable slope) using GraphPad Prism V4.03 software.

[19] = target: T4, TFECDHis (extracellular domain of …); test: SPR BIAcore 3000, HuMab immobilized, TFECDHis analyte
Procedure: as §2

[20] = target: T1, murine tissue factor (TF) on …; test: FACS on transfected HEK293F cells, 30 µg/mL antibody [panel A]

Binder | EC50 [1] [nM] | EC50 [2] [nM] | EC50 [3] [nM] | % max inhibition of FVIIa induced ERK phosphorylation (A431) [4] [%] | IC50, inhibition of FVIIa induced ERK phosphorylation (A431) [4] [nM] | IC50, inhibition of FVIIa induced IL-8 release (MDA-MB-231) [5] [nM] | max inhibition of FVIIa induced IL-8 release (MDA-MB-231) [5] [%] | % max inhibition of FXa generation (TF (Innovin) [6]) [%] | IC50, inhibition of FXa generation (TF (Innovin) [6]) [nM] | EC50 of ADCC, Bx-PC3 cells [7] [nM] | EC50 of ADCC, MDA-MB-231 cells [7] [nM] | Max MFI [8] | Max MFI [9] | Max MFI [10] | EC50 [11] [nM] | Max MFI [12] | IC50 [13] [nM] | max inhibition [13] [%] | further results
anti-TF HuMab 098 (antibody, V domains shown, Human monoclonal antibody from HuMab mice; also called HuMab-TF-098; HuMab-TF-98) VH: QVQLVQSGAEVRKPGSSVKVSCKASGGSFNNYPIFWVRQAPGQGFEWMGRIIPILGITAYAQKFQGRVTITADKSTSTAYMELNSLRSEDTAVYYCAGGDDLDAFDIWGQGTMVSVSS VL: DIQMTQSPSSLSASVGDRVTITCRASQGISSWLAWYQQKPEKAPKSLIYAASSLQSGVPSRFSGSGSGTDFTLTISSLQPEDFATYYCQQYNSYPYTFGQGTKLEIK | 1.4 | 1.38 | 0.99 | 64 | 1.89 | 9.3 | 59 | 14 | 0.43 | 0.02 | 0.15 | 2760 | 1150 | 1960 | 0.96 | 5230 | 0.8 | 85 | EC50 of ADCC, A431 cells [7]: 0.07 nM; binding result [14]: no binding (tested: 30 µg/mL); EC50 (read off the curve) [15]: ~0.05 µg/mL; Kd [16]: 4.85 nM
anti-TF HuMab 003 (antibody, V domains shown, Human monoclonal antibody from HuMab mice; also called HuMab-TF-003) VH: QVQLVQSGAEVKKPGSSVKVSCKAPRGTFSYYTISWVRQAPGQGLEWMGRIIPILGVANYAQKFQGRVTITADKSTSTAYMELSSLRSEDTAVYYCAREGDRRYFDYWGQGTLVTVSS VL: AIQLTQSPSSLSASVGDRVTITCRASQDISSALAWYQQKPGKAPKLLIYDASILESGVPSRFSGSGSGTDFTLTISSLQPEDFATYYCQQFNSYPLTFGGGTKVEIK | 6.94 | 4.98 | 3.2 | 63 | 7.99 | 23.7 | 76.2 | 21 | 0.07 | 0.17 | 0.29 | 2530 | 1110 | 1800 | 2.06 | 4250 | 1.9 | 89 | IC50, inhibition of blood coagulation (TF induced clotting time) (TF (Innovin) [17]): 7.3 nM; EC50 [18]: 0.46 nM; Kd [19]: 4.51 nM; binding result [20]: binds
